Series [1] has as its target Amyloid beta 1-40 oligomers (UniProt P05067 672-711). Briefly: electrochemical antibody-aptamer sandwich (DPV); 20 nM, antibody capture; response similar to 1-42 oligomers; 0.1 M phosphate buffer (Na2HPO4/NaH2PO4) pH 7.4; incubations at 37 C (Abeta 60 min, aptamer-Au-Th 3 h); 1% BSA block. To be noted: label: gold nanoparticle, thionine.
Series [2] concerns the target Amyloid beta 1-42 oligomers (UniProt P05067 672-713). Briefly: electrochemical antibody-aptamer sandwich (DPV); 20 nM, antibody capture; 0.1 M phosphate buffer (Na2HPO4/NaH2PO4) pH 7.4; incubations at 37 C (Abeta 60 min, aptamer-Au-Th 3 h); 1% BSA block. To be noted: label: gold nanoparticle, thionine.

Chain of Amyloid beta 1-42 oligomers (P05067 672-713): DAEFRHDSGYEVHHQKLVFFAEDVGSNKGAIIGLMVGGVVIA
Chain of Amyloid beta 1-40 oligomers (P05067 672-711): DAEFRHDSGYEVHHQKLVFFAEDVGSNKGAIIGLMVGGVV

B1: Abeta oligomer aptamer (thiolated, on AuNP with thionine) (ssDNA)
DNA: GCCTGTGTTGGGGCGGGTGCG
modifications: 5'-HS (thiol)
Take B1: the binding result in series [1] and in series [2] was “binds” in each case.
